Target: T1, ∆N25-FGF2, non-tagged form of FGF2 lacking 25 residues at the N-terminus (UniProt P09038-2 26-155)
T1 construct: FGF2, 18 kDa isoform (UniProtKB P09038-2), lacking 25 residues at the N-terminus; Untagged; also called untagged version of FGF2; source: E. coli, purified according to standard procedures
Assay: AlphaScreen or HTRF; competition: His-FGF2-wt (62 nM) and GST-α1 variant (15 nM) with ∆N25-FGF2 competitor from 22.5 µM to 1.4 nM; apparent IC50 taken as the apparent KD
Conditions: both partners purified

T1 sequence (P09038 159-288): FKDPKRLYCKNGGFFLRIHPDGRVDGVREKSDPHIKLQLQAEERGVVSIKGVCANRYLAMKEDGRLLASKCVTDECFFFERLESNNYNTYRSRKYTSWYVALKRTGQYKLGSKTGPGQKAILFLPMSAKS

- Kd: 1100 nM
B1: GST-α1-CD1-3, fusion of the three main loops of the cytoplasmic domain of the α1 subunit of the Na,K-ATPase (domain or fragment)
chain: not shown

Source: paper PMC7096399, “The Na,K-ATPase acts upstream of phosphoinositide PI(4,5)P2 facilitating unconventional secretion of Fibroblast Growth Factor 2” (Communications Biology, 2020)
